“And” between values parts separate entries of the source, which are not always exact repeats. Identical values can stand only once.
What was measured:
[1] = target: the molecule itself; assay: native gel or EMSA; native PAGE of lysate of untreated HEK293 cells, immunoblotting for the endogenous protein; recombinant USP25 tetramer and dimer fractions as size standard
[2] = target: the molecule itself; assay: cell-based or functional assay
[3] = target: the molecule itself; assay: not stated; oligomeric state of the purified deletion construct, Figure S4F (legend not shown)
[4] = target: the molecule itself; assay: SEC-MALS; five-fold dilution series (1 mg/mL, 0.2 mg/mL, 0.04 mg/mL sample concentration)
[5] = target: the molecule itself; assay: SAXS; SEC-SAXS, 45 μL at 3-12 mg/mL, Shodex KW-403, buffer E (20 mM Tris pH 8.0, 100 mM NaCl, 5 mM DTT); compared with curves calculated from the crystal structures

B1: endogenous USP28 (enzyme, human (endogenous in HEK293), UniProt Q96RU2 1-1077, looked up)
chain: MTAELQQDDAAGAADGHGSSCQMLLNQLREITGIQDPSFLHEALKASNGDITQAVSLLTDERVKEPSQDTVATEPSEVEGSAANKEVLAKVIDLTHDNKDDLQAAIALSLLESPKIQADGRDLNRMHEATSAETKRSKRKRCEVWGENPNPNDWRRVDGWPVGLKNVGNTCWFSAVIQSLFQLPEFRRLVLSYSLPQNVLENCRSHTEKRNIMFMQELQYLFALMMGSNRKFVDPSAALDLLKGAFRSSEEQQQDVSEFTHKLLDWLEDAFQLAVNVNSPRNKSENPMVQLFYGTFLTEGVREGKPFCNNETFGQYPLQVNGYRNLDECLEGAMVEGDVELLPSDHSVKYGQERWFTKLPPVLTFELSRFEFNQSLGQPEKIHNKLEFPQIIYMDRYMYRSKELIRNKRECIRKLKEEIKILQQKLERYVKYGSGPARFPLPDMLKYVIEFASTKPASESCPPESDTHMTLPLSSVHCSVSDQTSKESTSTESSSQDVESTFSSPEDSLPKSKPLTSSRSSMEMPSQPAPRTVTDEEINFVKTCLQRWRSEIEQDIQDLKTCIASTTQTIEQMYCDPLLRQVPYRLHAVLVHEGQANAGHYWAYIYNQPRQSWLKYNDISVTESSWEEVERDSYGGLRNVSAYCLMYINDKLPYFNAEAAPTESDQMSEVEALSVELKHYIQEDNWRFEQEVEEWEEEQSCKIPQMESSTNSSSQDYSTSQEPSVASSHGVRCLSSEHAVIVKEQTAQAIANTARAYEKSGVEAALSEVMLSPAMQGVILAIAKARQTFDRDGSEAGLIKAFHEEYSRLYQLAKETPTSHSDPRLQHVLVYFFQNEAPKRVVERTLLEQFADKNLSYDERSISIMKVAQAKLKEIGPDDMNMEEYKKWHEDYSLFRKVSVYLLTGLELYQKGKYQEALSYLVYAYQSNAALLMKGPRRGVKESVIALYRRKCLLELNAKAASLFETNDDHSVTEGINVMNELIIPCIHLIINNDISKDDLDAIEVMRNHWCSYLGQDIAENLQLCLGEFLPRLLDPSAEIIVLKEPPTIRPNSPYDLCSRFAAVMESIQGVSTVTVK
notes: USP28, endogenous in untreated HEK293 cells; source: endogenous, HEK293 lysate
**Q.** B1 was tested. Which “stoichiometry N” value [1] did it give?
**A.** 2

B2: Human USP25 (157-Δ(465-535)-714) (domain or fragment)
chain: NPYDRKRQDKAPVGLKNVGNTCWFSAVIQSLFNLLEFRRLVLNYKPPSNAQDLPRNQKEHRNLPFMRELRYLFALLVGTKRKYVDPSRAVEILKDAFKSNDSQQQDVSEFTHKLLDWLEDAFQMKAEEETDEEKPKNPMVELFYGRFLAVGVLEGKKFENTEMFGQYPLQVNGFKDLHECLEAAMIEGEIESLHSENSGKSGQEHWFTELPPVLTFELSRFEFNQALGRPEKIHNKLEFPQVLYLDRYMHRNREITRIKREEIKRLKDYLTVLQQRLERYLSYGSGPKRFPLVDVLQYALEFASSKPVGSGSGSAPRHITEEELSVLESCLHRWRTEIENDTRDLQESISRIHRTIELMYSDKSMIQVPYRLHAVLVHEGQANAGHYWAYIFDHRESRWMKYNDIAVTKSSWEELVRDSFGGYRNASAYCLMYINDKAQFLIQEEFNKETGQPLVGIETLPPDLRDFVEEDNQRFEKELEEWDAQLAQKALQE
notes: USP25, human, residues 536-714; source: E. coli Rosetta2(DE3)pLacI, purified (HisTrap, 3C protease, Resource Q, size exclusion)
**Q.** What does the source list for B2?
**A.** Ub-KG-TAMRA cleavage activity against the tetrameric wild-type USP25 (157-714) [2]: 6 fold; stoichiometry N [3]: 2

B3: Human USP25 (1-714) (domain or fragment, UniProt Q9UHP3 1-714, looked up)
chain: MTVEQNVLQQSAAQKHQQTFLNQLREITGINDTQILQQALKDSNGNLELAVAFLTAKNAKTPQQEETTYYQTALPGNDRYISVGSQADTNVIDLTGDDKDDLQRAIALSLAESNRAFRETGITDEEQAISRVLEASIAENKACLKRTPTEVWRDSRNPYDRKRQDKAPVGLKNVGNTCWFSAVIQSLFNLLEFRRLVLNYKPPSNAQDLPRNQKEHRNLPFMRELRYLFALLVGTKRKYVDPSRAVEILKDAFKSNDSQQQDVSEFTHKLLDWLEDAFQMKAEEETDEEKPKNPMVELFYGRFLAVGVLEGKKFENTEMFGQYPLQVNGFKDLHECLEAAMIEGEIESLHSENSGKSGQEHWFTELPPVLTFELSRFEFNQALGRPEKIHNKLEFPQVLYLDRYMHRNREITRIKREEIKRLKDYLTVLQQRLERYLSYGSGPKRFPLVDVLQYALEFASSKPVCTSPVDDIDASSPPSGSIPSQTLPSTTEQQGALSSELPSTSPSSVAAISSRSVIHKPFTQSRIPPDLPMHPAPRHITEEELSVLESCLHRWRTEIENDTRDLQESISRIHRTIELMYSDKSMIQVPYRLHAVLVHEGQANAGHYWAYIFDHRESRWMKYNDIAVTKSSWEELVRDSFGGYRNASAYCLMYINDKAQFLIQEEFNKETGQPLVGIETLPPDLRDFVEEDNQRFEKELEEWDAQLAQKALQE
notes: USP25, human, residues 1-714; tetrameric and dimeric species side by side; source: E. coli Rosetta2(DE3)pLacI, purified (HisTrap, 3C protease, Resource Q, size exclusion)
**Q.** How did the “stoichiometry N” value [4] turn out when B3 was run?
**A.** 4 and 2

B4: Human USP25 (157-1055) (domain or fragment, UniProt Q9UHP3 157-1055, looked up)
chain: NPYDRKRQDKAPVGLKNVGNTCWFSAVIQSLFNLLEFRRLVLNYKPPSNAQDLPRNQKEHRNLPFMRELRYLFALLVGTKRKYVDPSRAVEILKDAFKSNDSQQQDVSEFTHKLLDWLEDAFQMKAEEETDEEKPKNPMVELFYGRFLAVGVLEGKKFENTEMFGQYPLQVNGFKDLHECLEAAMIEGEIESLHSENSGKSGQEHWFTELPPVLTFELSRFEFNQALGRPEKIHNKLEFPQVLYLDRYMHRNREITRIKREEIKRLKDYLTVLQQRLERYLSYGSGPKRFPLVDVLQYALEFASSKPVCTSPVDDIDASSPPSGSIPSQTLPSTTEQQGALSSELPSTSPSSVAAISSRSVIHKPFTQSRIPPDLPMHPAPRHITEEELSVLESCLHRWRTEIENDTRDLQESISRIHRTIELMYSDKSMIQVPYRLHAVLVHEGQANAGHYWAYIFDHRESRWMKYNDIAVTKSSWEELVRDSFGGYRNASAYCLMYINDKAQFLIQEEFNKETGQPLVGIETLPPDLRDFVEEDNQRFEKELEEWDAQLAQKALQEKLLASQKLRESETSVTTAQAAGDPEYLEQPSRSDFSKHLKEETIQIITKASHEHEDKSPETVLQSAIKLEYARLVKLAQEDTPPETDYRLHHVVVYFIQNQAPKKIIEKTLLEQFGDRNLSFDERCHNIMKVAQAKLEMIKPEEVNLEEYEEWHQDYRKFRETTMYLIIGLENFQRESYIDSLLFLICAYQNNKELLSKGLYRGHDEELISHYRRECLLKLNEQAAELFESGEDREVNNGLIIMNEFIVPFLPLLLVDEMEEKDILAVEDMRNRWCSYLGQEMEPHLQEKLTDFLPKLLDCSMEIKSFHEPPKLPSYSTHELCERFARIMLSLSRTPADGR
notes: source: E. coli Rosetta2(DE3)pLacI, purified (HisTrap, 3C protease, Resource Q, size exclusion)
**Q.** For B4, which “stoichiometry N” value [4] is on record?
**A.** 4

B5: Human USP28 (149-703) (domain or fragment, UniProt Q96RU2 149-703, looked up)
chain: PNPNDWRRVDGWPVGLKNVGNTCWFSAVIQSLFQLPEFRRLVLSYSLPQNVLENCRSHTEKRNIMFMQELQYLFALMMGSNRKFVDPSAALDLLKGAFRSSEEQQQDVSEFTHKLLDWLEDAFQLAVNVNSPRNKSENPMVQLFYGTFLTEGVREGKPFCNNETFGQYPLQVNGYRNLDECLEGAMVEGDVELLPSDHSVKYGQERWFTKLPPVLTFELSRFEFNQSLGQPEKIHNKLEFPQIIYMDRYMYRSKELIRNKRECIRKLKEEIKILQQKLERYVKYGSGPARFPLPDMLKYVIEFASTKPASESCPPESDTHMTLPLSSVHCSVSDQTSKESTSTESSSQDVESTFSSPEDSLPKSKPLTSSRSSMEMPSQPAPRTVTDEEINFVKTCLQRWRSEIEQDIQDLKTCIASTTQTIEQMYCDPLLRQVPYRLHAVLVHEGQANAGHYWAYIYNQPRQSWLKYNDISVTESSWEEVERDSYGGLRNVSAYCLMYINDKLPYFNAEAAPTESDQMSEVEALSVELKHYIQEDNWRFEQEVEEWEEEQSCKI
notes: also called USP28 catalytic domain; source: E. coli Rosetta2(DE3)pLacI, purified (HisTrap, 3C protease, Resource Q, size exclusion)
**Q.** B5 was tested. Which “stoichiometry N” value [5] did it give?
**A.** 2

Reference: article PMC6509359 (Molecular Cell, 2019)
